One substance from article PMC7105138, “Modeling cancer genomic data in yeast reveals selection against ATM function during tumorigenesis” (PLoS Genetics, 2020) can be followed below.

The Kd is the constant that tells how readily two partners part at equilibrium.

What all share (experiment): EMSA
Conditions in all cases: ATP, 5 mM Mg2+, 150 mM NaCl; 25 mM Tris-Cl pH 7.6, 150 mM NaCl (also 50, 250, 300 mM), 7.5% glycerol, 1 mM beta-mercaptoethanol, 0.125% Igepal, 5 mM MgCl2, with or without 5 mM ATP; 5 nM …
For orientation: A gel shift assay detects complexes by their altered migration in electrophoresis.

Series [1] has as its system Rad50-D67Y (Saccharomyces cerevisiae).
In series [2] the test system is Rad50-L1240F-I23V (Saccharomyces cerevisiae).
Series [3] relates to Rad50-L1240F (Saccharomyces cerevisiae).
The subject of series [4] is Rad50-D67N (Saccharomyces cerevisiae).

Take 83-mer dsDNA oligonucleotide: the Kd in series [1] is 320 nM; in series [2] it was above 800 nM; in series [3], above 800 nM; in series [4] it was 200 nM.
